Measurements taken from article doi:10.1101/619858.

Molecular target: α-Synuclein (α-Syn), wild type (UniProt P37840)

percent of the protein as fibrils (day 5): 2%
percent of the protein as oligomers (day 5): 8%
Substance: α-Synuclein (α-Syn), wild type (from UniProt P37840 1-140) (natural protein)
